Results from patent US8329186B2, “Treatment of inflammation using BST2 inhibitor” (Isu Abxis Co., Ltd, priority 2004, dated 2012).

Tests used:
U937 cells = assay: Direct binding of U937 cells to Bst2 decoy-coated plates; parameters: species or system human; conditions: Bst2 decoy-coated wells vs BSA
Method: Flat-bottomed 96-well plates were coated with Bst2 decoy with sodium bicarbonate (100 mM, pH 9.5) for 2 hrs at 37° C. The plates were washed with PBS (pH 7.4) and incubated with 1% bovine serum albumin (BSA) at 25° C. After a rinse with PBS (pH 7.4) containing 1 mM CaCl2 and 0.5 mM MgCl2, U937 cells (1×10^6/ml) were added to each dBst2-coated well. After 2 hrs of incubation at 37° C., unbound cells were removed by two gentle washes with RPMI1640 media (Gibco-BRL) and bound cells were fixed with 2% paraformaldehyde for 20 minutes, washed, and stained with 0.5% crystal violet. After 30 minutes at 25° C., the plates were washed with PBS and bound cells were counted.

CLP sepsis = assay: Cecal ligation and puncture (CLP) sepsis model: survival; assay type: in vivo, rat
From the text: A rat model of sepsis was induced through cecal ligation and puncture (CLP) as described previously (Wichterman K A, Baue A E, Chaudry I H: Sepsis and septic shock-a review of laboratory models and a proposal. J Surg Res 29:189-201, 1980). An incision was made along the midline of the abdomen on an anesthetized animal. The cecum was exteriorized, ligated and punctured with a stainless steel needle. An appropriate amount of fecal matter was then extruded. The gauge of the needle, number of punctures and amount of fecal matter extruded are all factors in determining the severity of sepsis and mortality. […] The incision was sutured and appropriate post-operative care was administered. Sham-operated animals were subjected to similar laparotomy and intestinal manipulation, however, the cecum was neither ligated nor punctured. Immediately or 6 hours after the CLP procedure, animals were given intravenous injection of vehicle or a Bst2 decoy.
Mortality of animals was monitored for up to 14 days after the procedure. […] 3, 10, and 30 mg/kg doses were administered immediately following the CLP procedure and daily survival monitored over the course of 14 days.

B1: Bst2 decoy: soluble Bst2 protein fragment having the amino acid sequence of SEQ ID NO:1; extracellular region of human Bst2, six-histidine tag (protein)
chain: NSEACRDGLRAVMECRNVTHLLQQELTEAQKGFQDVEAQAATCNHTVMALMASLDAEKAQGQKKVEELEGEITTLNHKLQDASAEVERLRRENQVLSVRIADKKYYPSSQDHHHHHH
attachment of U937 cells to coated wells (U937 cells): attached | 14 day survival rate (CLP sepsis; 3 mg/kg intravenous immediately following CLP): 37.5% | 14 day survival rate (CLP sepsis; 10 mg/kg intravenous immediately following CLP): 80% | 14 day survival rate (CLP sepsis; 30 mg/kg intravenous immediately following CLP): 75% | 14-day survival rate (CLP sepsis; administration 6 hours post-CLP): 70%
